Sequences and labels used below:
B1: glmS ribozyme (parent)
chain: AUAAAAGCGCCAGAACUACAGAAAUGUAGUUGACGAGGAGGAGGUUUAUCGAAUUUUCGGCGGAUGCCUCCAAA

Settings in all cases: with glucosamine-6-phosphate
In data set [1] the parent is B1. The data set is described as follows: self-cleavage kobs at 640 uM GlcN6P; higher = faster cleavage; RNA array. Summed up: (§1)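 On sequenced MiSeq chips, barcoded ribozyme variants were made in situ by E. coli RNA polymerase and followed at 37 °C through a hybridised Cy3 probe. Glucosamine-6-phosphate was flowed in at 40 μM to 10 mM in HEPES/KCl/Mg(OAc)2 buffer. Exponential fits to normalised per-tile medians gave kobs, and weighted Michaelis–Menten fits gave kcat and KM.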

In data set [2] the parent is B1. In words: self-cleavage kobs at 10000 uM GlcN6P; higher = faster cleavage; RNA array. In short, it runs like this: as §1
The variants in data set [3] derive from B1. The data set is described as follows: self-cleavage kobs at 2500 uM GlcN6P; higher = faster cleavage; RNA array. Summed up:
as §1

± gives the standard error. Variants at the floor of the assay were thinned out.

As to A14U A15U G60U C71U, the “self-cleavage kobs at 640 uM GlcN6P” value with glucosamine-6-phosphate [1] was below 1e-05 s⁻¹. Moreover, the “self-cleavage kobs at 10000 uM GlcN6P” value in the data set with glucosamine-6-phosphate [2] is below 1e-05 s⁻¹.
With G38A A42C A64G, the “self-cleavage kobs at 640 uM GlcN6P” value in the data set with glucosamine-6-phosphate [1] was below 1e-05 s⁻¹. Moreover, the “self-cleavage kobs at 2500 uM GlcN6P” value with glucosamine-6-phosphate [3] is below 1e-05 s⁻¹.
In the case of G59U C70G, the “self-cleavage kobs at 640 uM GlcN6P” value in the data set with glucosamine-6-phosphate [1] is 0.000548 ± 0.00023 s⁻¹.
Consider A36C G38U U49A, for which the “self-cleavage kobs at 640 uM GlcN6P” value with glucosamine-6-phosphate [1] was below 1e-05 s⁻¹. In the data set with glucosamine-6-phosphate [3], the “self-cleavage kobs at 2500 uM GlcN6P” value was below 1e-05 s⁻¹.
As for C16U G21U G35U C70A, the “self-cleavage kobs at 640 uM GlcN6P” value with glucosamine-6-phosphate [1] was determined as 7.72e-05 ± 2.8e-05 s⁻¹.
G26U C71A: the “self-cleavage kobs at 640 uM GlcN6P” value with glucosamine-6-phosphate [1] was found to be 0.000733 ± 0.0002 s⁻¹. Further, the “self-cleavage kobs at 2500 uM GlcN6P” value in the data set with glucosamine-6-phosphate [3] came out at 0.000394 ± 0.0001 s⁻¹.
As for A33C C50U G60U, the “self-cleavage kobs at 640 uM GlcN6P” value with glucosamine-6-phosphate [1] was below 1e-05 s⁻¹.
On to A6C A14C U31C A36G A48G, for which the “self-cleavage kobs at 640 uM GlcN6P” value with glucosamine-6-phosphate [1] is below 1e-05 s⁻¹. For the same variant, the “self-cleavage kobs at 10000 uM GlcN6P” value in the data set with glucosamine-6-phosphate [2] is below 1e-05 s⁻¹.
For the variant A48U G59C C68G, the “self-cleavage kobs at 640 uM GlcN6P” value with glucosamine-6-phosphate [1] was below 1e-05 s⁻¹.
Take A12U A42G C68U: the “self-cleavage kobs at 640 uM GlcN6P” value in the data set with glucosamine-6-phosphate [1] came to 0.00273 ± 0.00096 s⁻¹.
In the case of A6G G41A C50A G62U, the “self-cleavage kobs at 640 uM GlcN6P” value with glucosamine-6-phosphate [1] was below 1e-05 s⁻¹.
Take A6G C10U A14G C34U U46G U57A: the “self-cleavage kobs at 640 uM GlcN6P” value with glucosamine-6-phosphate [1] is below 1e-05 s⁻¹.
G7C G32C G59A: in the data set with glucosamine-6-phosphate [1], the “self-cleavage kobs at 640 uM GlcN6P” value is below 1e-05 s⁻¹.
Consider C34U A36G G62A U69G, for which, in the data set with glucosamine-6-phosphate [1], the “self-cleavage kobs at 640 uM GlcN6P” value was 0.00111 ± 0.00031 s⁻¹. Also, the “self-cleavage kobs at 2500 uM GlcN6P” value with glucosamine-6-phosphate [3] worked out at 0.000939 ± 0.00035 s⁻¹.
On to A48U U57G G62U, for which the “self-cleavage kobs at 640 uM GlcN6P” value with glucosamine-6-phosphate [1] was below 1e-05 s⁻¹. Moreover, the “self-cleavage kobs at 2500 uM GlcN6P” value in the data set with glucosamine-6-phosphate [3] is below 1e-05 s⁻¹.
With G32U A33U G35U A36C C50U, the “self-cleavage kobs at 640 uM GlcN6P” value with glucosamine-6-phosphate [1] is below 1e-05 s⁻¹.
Consider G29A G35C A48G, for which, in the data set with glucosamine-6-phosphate [1], the “self-cleavage kobs at 640 uM GlcN6P” value is below 1e-05 s⁻¹.
The same measure, in the same setting: the same measure for C16U G35U U55A: below 1e-05 s⁻¹.
For the variant A6G A52G G60A, in the data set with glucosamine-6-phosphate [1], the “self-cleavage kobs at 640 uM GlcN6P” value is below 1e-05 s⁻¹. In the data set with glucosamine-6-phosphate [3], the “self-cleavage kobs at 2500 uM GlcN6P” value is below 1e-05 s⁻¹.
Turning to A12C A33G G37U, the “self-cleavage kobs at 640 uM GlcN6P” value in the data set with glucosamine-6-phosphate [1] is below 1e-05 s⁻¹. For the same variant, in the data set with glucosamine-6-phosphate [3], the “self-cleavage kobs at 2500 uM GlcN6P” value is below 1e-05 s⁻¹.
Regarding C11G A15G C50G G66U, in the data set with glucosamine-6-phosphate [1], the “self-cleavage kobs at 640 uM GlcN6P” value turned out to be 0.000661 ± 0.00032 s⁻¹.
On the same count and under the same terms, the same measure for G66U C68G C71A: 5.91e-05 ± 2.3e-05 s⁻¹; for C11A A12U U47A: 0.000122 ± 2.6e-05 s⁻¹.
Turning to G41U G51C U69C, the “self-cleavage kobs at 640 uM GlcN6P” value in the data set with glucosamine-6-phosphate [1] was below 1e-05 s⁻¹. Further, in the data set with glucosamine-6-phosphate [3], the “self-cleavage kobs at 2500 uM GlcN6P” value is below 1e-05 s⁻¹.
U45A A48C G60U C67U: in the data set with glucosamine-6-phosphate [1], the “self-cleavage kobs at 640 uM GlcN6P” value was below 1e-05 s⁻¹.
Consider G13U G60U C70U, for which the “self-cleavage kobs at 640 uM GlcN6P” value with glucosamine-6-phosphate [1] is below 1e-05 s⁻¹.
On the same count and under the same terms, the same measure for A52U C70G C71A: 8.24e-05 ± 2.8e-05 s⁻¹.
Take C11A A12U C16U C70U: in the data set with glucosamine-6-phosphate [1], the “self-cleavage kobs at 640 uM GlcN6P” value came to 0.00025 ± 7.2e-05 s⁻¹. Also, the “self-cleavage kobs at 2500 uM GlcN6P” value in the data set with glucosamine-6-phosphate [3] was found to be 0.000524 ± 0.00013 s⁻¹.
A12G G26U G41U U47C C70G: the “self-cleavage kobs at 640 uM GlcN6P” value with glucosamine-6-phosphate [1] turned out to be 0.000117 ± 5.2e-05 s⁻¹.
In the case of A42C G60C C70U, in the data set with glucosamine-6-phosphate [1], the “self-cleavage kobs at 640 uM GlcN6P” value is below 1e-05 s⁻¹. Also, in the data set with glucosamine-6-phosphate [3], the “self-cleavage kobs at 2500 uM GlcN6P” value is below 1e-05 s⁻¹. Also, the “self-cleavage kobs at 10000 uM GlcN6P” value with glucosamine-6-phosphate [2] is below 1e-05 s⁻¹.
As to U30A G43C C58U U69A, the “self-cleavage kobs at 640 uM GlcN6P” value in the data set with glucosamine-6-phosphate [1] was below 1e-05 s⁻¹. Moreover, in the data set with glucosamine-6-phosphate [3], the “self-cleavage kobs at 2500 uM GlcN6P” value was below 1e-05 s⁻¹.
With A15U U49C C68G, the “self-cleavage kobs at 640 uM GlcN6P” value in the data set with glucosamine-6-phosphate [1] was determined as 0.00159 ± 0.00057 s⁻¹.
In the case of A15G G29U C70U, in the data set with glucosamine-6-phosphate [1], the “self-cleavage kobs at 640 uM GlcN6P” value came out at 0.000127 ± 2.4e-05 s⁻¹. In the data set with glucosamine-6-phosphate [3], the “self-cleavage kobs at 2500 uM GlcN6P” value is 9.76e-05 ± 3.9e-05 s⁻¹.
With G7C G9U A39G U45A G59A G60A C67U C68U, the “self-cleavage kobs at 640 uM GlcN6P” value in the data set with glucosamine-6-phosphate [1] is below 1e-05 s⁻¹.
Same read-out and setting: with A42C G43U G44U G51U the figure was below 1e-05 s⁻¹.
For the variant A6G A52C C58G G63A G66C, the “self-cleavage kobs at 640 uM GlcN6P” value with glucosamine-6-phosphate [1] was below 1e-05 s⁻¹. Moreover, the “self-cleavage kobs at 2500 uM GlcN6P” value with glucosamine-6-phosphate [3] was below 1e-05 s⁻¹.

These data come from the supplement of paper PMC7125110.
